The supplement of paper PMC9170038

Assays:
MS2 coat protein [1] = test: apparent KD of MS2 coat protein; designed switch direction (-1 OFF switch, 1 ON switch): -1; higher = weaker reporter binding; details: Eterna round: R98
Experimental: (§1)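 RNA-MaP: designed FMN/MS2 RNA switches (84 nt design region) are transcribed on-chip within common flanks and titrated with SNAP-549-labelled MS2 coat protein (about 1-3000 nM) in 100 mM Tris pH 7.5, 80 mM KCl, 4 mM MgCl2, without or with 200 uM FMN. Median apparent KD per design; activation ratio = KD,OFF / KD,ON.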

MS2 coat protein [2] = test: apparent KD of MS2 coat protein; designed switch direction (-1 OFF switch, 1 ON switch): 1; higher = weaker reporter binding; details: Eterna round: R98
Experimental: as §1

MS2 coat protein [3] = test: apparent KD of MS2 coat protein; higher = weaker reporter binding; details: Eterna round: R101
Experimental: as §1

Sequence: CUGGUGAUGUAAGGAUAUGCUGAGGAUAACUCAGCAGAAGGUACAUGAGGAUCACCCAUGUAAAUGAAAGAUAAUAAACACCAG [Excusion NG 1/16-B2]
- apparent KD of MS2 coat protein (MS2 coat protein [1]; input ligand: FMN 200 uM): 0.0309 µM
- apparent KD of MS2 coat protein (MS2 coat protein [1]; input ligand: none): 0.0159 µM

Sequence: GAGCUGCUCUGAGGAUAUGGGUUUAUAAGGACGGGCACGCCCGACAUGAGGAUCACCCAUGUCUACCAGAAGGCAGAAAAGUUC [Mamain]
- apparent KD of MS2 coat protein (MS2 coat protein [2]; input ligand: FMN 200 uM): 0.394 µM
- apparent KD of MS2 coat protein (MS2 coat protein [2]; input ligand: none): 0.171 µM

Sequence: UAAUAAUAAUAAUACGUCAAUUACAUGAGGAUCACCCAUGUAUAGGAUAUGCAGUGGAAUACACUGCAGAAGGAUACAAAGACG [Exclusion NG 3/3-B1]
- apparent KD of MS2 coat protein (MS2 coat protein [1]; input ligand: FMN 200 uM): 0.0228 µM
- apparent KD of MS2 coat protein (MS2 coat protein [1]; input ligand: none): 0.0196 µM

Sequence: ACAUGGAAGCGAGGAUAUGCGGCGGAUUUAAACGCAGAAGGCGUUUAUUUAACUCGCAAUAACAUGAGGAUCACCCAUGUAUAA [AK-NGROCr2-ExNG1-5.1]
- apparent KD of MS2 coat protein (MS2 coat protein [1]; input ligand: FMN 200 uM): 0.0594 µM
- apparent KD of MS2 coat protein (MS2 coat protein [1]; input ligand: none): 0.0559 µM

Sequence: UUGGUUCUCGUAGGAUAUGUAGGAUAUGCCUACAUGAGGAUCACCCAUGUUCGCAUGGCAGAAGGACAGAAGGACGAUCACCAU [pwkr ssNG2 2FMN +1F5.17]
- apparent KD of MS2 coat protein (MS2 coat protein [2]; input ligand: FMN 200 uM): 0.0208 µM
- apparent KD of MS2 coat protein (MS2 coat protein [2]; input ligand: none): 0.288 µM

Sequence: GGUUGUUACGCAGGAUAUUGCCAACAGGCAGUGGGAUAUCCGAAAGGAGAAGGUUCGCCAACAGGCGAGAAGGGCGGGUUAACC [pwkr exNG2 2xF7 2FMN.10.7]
- apparent KD of MS2 coat protein (MS2 coat protein [1]; input ligand: FMN 200 uM): 0.094 µM
- apparent KD of MS2 coat protein (MS2 coat protein [1]; input ligand: none): 0.4 µM

Sequence: GGAGACCUCACAGGAUAUGCUGGACUUUGUCCAGCAGAAGGGUGACUAACAUGAGGAUCACCCAUGUAGGUCUCCAAAUUUAAU [Denovo 58]
- apparent KD of MS2 coat protein (MS2 coat protein [2]; input ligand: FMN 200 uM): 0.631 µM
- apparent KD of MS2 coat protein (MS2 coat protein [2]; input ligand: none): 0.0408 µM

Sequence: CACGUCCUCACAGGAUAUGCUGGACUUUGUCCAGCAGAAGGGUGAACAUGAGGAUCACCCAUGUAAAGGACGUGUAUAUUUAAU [Denovo 23]
- apparent KD of MS2 coat protein (MS2 coat protein [2]; input ligand: FMN 200 uM): 0.0725 µM
- apparent KD of MS2 coat protein (MS2 coat protein [2]; input ligand: none): 0.587 µM

Sequence: AAGUUUUUACAAGGAUAUCAGUUGUUUAUAAAUUAAACAUGAGGAUCACCCAUGUAACAAAGGAGUGAGAAGGUGUGUUGGAAA [JR_SSNG2_Sub089]
- apparent KD of MS2 coat protein (MS2 coat protein [2]; input ligand: FMN 200 uM): 0.319 µM
- apparent KD of MS2 coat protein (MS2 coat protein [2]; input ligand: none): 0.408 µM

Sequence: CCUGACACUUGAGGAUAUGCUCAGGAAUACUGAGCAGAAGGCAGGAAAACCUGAGGAUCACCCAGGUAAGUCAGGAAUAAUAAA [Same State NG1 - A3C, U17G Submission 3A]
- apparent KD of MS2 coat protein (MS2 coat protein [2]; input ligand: FMN 200 uM): 0.0172 µM
- apparent KD of MS2 coat protein (MS2 coat protein [2]; input ligand: none): 0.0207 µM

Sequence: GCAGAAGGUGCGGAGGAUCACCCUGUAAGGAUAUGCAUUAGCAAGGAUAUACAGAGGAUCACCCUGUAGAAGGUGCACUACUCU [pwkr2 ssNG3 DX.1]
- apparent KD of MS2 coat protein (MS2 coat protein [2]; input ligand: FMN 200 uM): 1.14 µM
- apparent KD of MS2 coat protein (MS2 coat protein [2]; input ligand: none): 1.43 µM

Sequence: GAUACAUAGCAAGGAUAUCCACAUGAGGAUCACCCAUGUGCGUAAUCUGGGCGGUGGAAGAAAGUGGAGAAGGUGUUAGGUUGA [Atia]
- apparent KD of MS2 coat protein (MS2 coat protein [1]; input ligand: FMN 200 uM): 0.106 µM
- apparent KD of MS2 coat protein (MS2 coat protein [1]; input ligand: none): 0.0642 µM

Sequence: UGUAAAAUUGAUCCUGCAAGUACAUGAGGAUCACCCAUGUGCUAGGAUAUCGCUCAGCUAAAGACCGAGAAGGAGCACAAUGUA [Adiraat]
- apparent KD of MS2 coat protein (MS2 coat protein [1]; input ligand: FMN 200 uM): 0.0671 µM
- apparent KD of MS2 coat protein (MS2 coat protein [1]; input ligand: none): 0.0279 µM

Sequence: GCAGAAGGUGCGGAGGAUCACCCUGUAAGGAUAUGCAUUAGCAAGGAUAUACAGAGGAUCACCCUGUAGAAGGUGCACUUCUGC [pwkr2 ssNG3 DX.9]
- apparent KD of MS2 coat protein (MS2 coat protein [2]; input ligand: FMN 200 uM): 1.31 µM
- apparent KD of MS2 coat protein (MS2 coat protein [2]; input ligand: none): 0.897 µM

Sequence: CAUGUCCUCACAGGAUAUGCUGGACUUUGUCCAGCAGAAGGGUGAACAUGAGGAUCACCCAUGUAAUGGACAUGUAUAUUUAAG [Mat - Same State NG 1 - Eli mod - D98]
- apparent KD of MS2 coat protein (MS2 coat protein [2]; input ligand: FMN 200 uM): 0.0494 µM
- apparent KD of MS2 coat protein (MS2 coat protein [2]; input ligand: none): 0.902 µM

Sequence: AACCUGACAUAAUAAUGUAGAAAUACAUGAGGAUCACCCAUGUAGGAUAUGCAGUGGAAUACACUGCAGAAGGACAUAGUCAGG [Exclusion NG 3/8-B1]
- apparent KD of MS2 coat protein (MS2 coat protein [1]; input ligand: FMN 200 uM): 0.0219 µM
- apparent KD of MS2 coat protein (MS2 coat protein [1]; input ligand: none): 0.0148 µM

Sequence: CUGCAAUUCUUAGGAUAUGCUCAGGAAUACUGAGCAGAAGGAAGAUAUACCUGAGGAUCACCCAGGUUAAACUGGAGCAGAAUA [Same State NG1 - A3C, U17G Submission 8A]
- apparent KD of MS2 coat protein (MS2 coat protein [2]; input ligand: FMN 200 uM): 0.0322 µM
- apparent KD of MS2 coat protein (MS2 coat protein [2]; input ligand: none): 0.181 µM

Sequence: GCGUCCCGCAGAGGAUAUGUUGUUCGGCCUACAUGAGGAUCACCCAUGUCAAAGGGCUGAUCCCAACAGAAGGCUGAAGGAUAC [Qumarera]
- apparent KD of MS2 coat protein (MS2 coat protein [2]; input ligand: FMN 200 uM): 0.00873 µM
- apparent KD of MS2 coat protein (MS2 coat protein [2]; input ligand: none): 0.064 µM

Sequence: GCUCUCACUUGAGGAUAUCGAGUGGAUAACACUCGAGAAGGCAGGGAAACCUGAGGAUCACCCAGGUAACUGGAAAGAGAGCAA [Same State NG1 - A3C, U17G Submission 5D]
- apparent KD of MS2 coat protein (MS2 coat protein [2]; input ligand: FMN 200 uM): 0.0204 µM
- apparent KD of MS2 coat protein (MS2 coat protein [2]; input ligand: none): 0.0318 µM

Sequence: UUAUGAGCGAUAGGAUAUACUGAGAUUGAAUGGGUAGAAGGAUCAAUCGUGUGGAAGACAUGAGGAUCACCCAUGUUACGGGCC [SameState #75 NG1]
- apparent KD of MS2 coat protein (MS2 coat protein [2]; input ligand: FMN 200 uM): 0.51 µM
- apparent KD of MS2 coat protein (MS2 coat protein [2]; input ligand: none): 0.221 µM

Sequence: GGAGCACACAUUAACAUGAGGAUCACCCAUGUCAAAAGACAUGAGGAUAUGGAUCCGAAAAGGAUCCAGAAGGCAUGGUGCUCC [EliMod 8 - Jieux - Same State NG 3]
- apparent KD of MS2 coat protein (MS2 coat protein [2]; input ligand: FMN 200 uM): 0.0351 µM
- apparent KD of MS2 coat protein (MS2 coat protein [2]; input ligand: none): 0.598 µM

Sequence: ACAUAAUGGUGAGGAUAUGCACAGGAUCACCGUGUAGAAGGCAUCAGGUAGAAGGUGCAGAGGAUCACCCUGUAAGGAUAUAUC [pwkr2 ssNG1 DX.19]
- apparent KD of MS2 coat protein (MS2 coat protein [2]; input ligand: FMN 200 uM): 0.0946 µM
- apparent KD of MS2 coat protein (MS2 coat protein [2]; input ligand: none): 0.562 µM

Sequence: GCUUGCGACGCAGGAUAUGGGUGCCUGCACACGAGGAUCACCCGUGUAGAGGAACGGAUUACGUCUCAGAAGGGCGUGGCAGGC [United States 4 - Jieux - Same State NG 2]
- apparent KD of MS2 coat protein (MS2 coat protein [2]; input ligand: FMN 200 uM): 0.0218 µM
- apparent KD of MS2 coat protein (MS2 coat protein [2]; input ligand: none): 0.0889 µM

Sequence: GGAUAACAUGUAGGAUAUCCAGCAUUGACCAUCGGAGAAGGACAUGAGGAUCACCCAUGUACCGAUACAAUGGAAUAAGGGAAU [xclu_NG1_cac3]
- apparent KD of MS2 coat protein (MS2 coat protein [1]; input ligand: FMN 200 uM): 0.0179 µM
- apparent KD of MS2 coat protein (MS2 coat protein [1]; input ligand: none): 0.0154 µM

Sequence: CGCUAUGAUGGUUGUAAUAGAGCAUAGGAUAUGCUUGUACAUGAGGAUCACCCAUGUUAUAUUUUGCAGAAGGGUGCAUUUGCG [JR #DistanceFar #Hairpin #NP SLSSNG3 Sub073] (puzzle (switch architecture): Small Loop Same State NG 3)
- apparent KD of MS2 coat protein (MS2 coat protein [3]; input ligand: FMN 200 uM): 0.0301 µM
- apparent KD of MS2 coat protein (MS2 coat protein [3]; input ligand: none): 0.0599 µM

Sequence: AAAUGAUAUCAGAAGGGCUCCAGCAAAGCUGGAGCAGGAUAUGAGGAUCACCCAUAUCACCUGACGGUCGAAACGACCGUCAGG [#SharedSequence - IExNG1: 7-1] (puzzle (switch architecture): Inverted Exclusion NG 1)
- apparent KD of MS2 coat protein (MS2 coat protein [3]; input ligand: FMN 200 uM): 0.0621 µM
- apparent KD of MS2 coat protein (MS2 coat protein [3]; input ligand: none): 0.0155 µM
